Experimental data published in patent US20260275312, “CRISPR NUCLEASE POLYPEPTIDES AND GENE EDITING SYSTEMS COMPRISING SUCH” (ARBOR BIOTECHNOLOGIES, INC., published 2026).

Columns and labels:
[1] = biological target: T1, Nuclease H L54R/L323R/T783R (synthetic construct, L54R,L323R,T783R); assay: cell_activity; HEK293T; PAM AAC; conditions: tags: N-term SV40 NLS, XTEN linker + C-term nucleoplasmin NLS
T1 chain: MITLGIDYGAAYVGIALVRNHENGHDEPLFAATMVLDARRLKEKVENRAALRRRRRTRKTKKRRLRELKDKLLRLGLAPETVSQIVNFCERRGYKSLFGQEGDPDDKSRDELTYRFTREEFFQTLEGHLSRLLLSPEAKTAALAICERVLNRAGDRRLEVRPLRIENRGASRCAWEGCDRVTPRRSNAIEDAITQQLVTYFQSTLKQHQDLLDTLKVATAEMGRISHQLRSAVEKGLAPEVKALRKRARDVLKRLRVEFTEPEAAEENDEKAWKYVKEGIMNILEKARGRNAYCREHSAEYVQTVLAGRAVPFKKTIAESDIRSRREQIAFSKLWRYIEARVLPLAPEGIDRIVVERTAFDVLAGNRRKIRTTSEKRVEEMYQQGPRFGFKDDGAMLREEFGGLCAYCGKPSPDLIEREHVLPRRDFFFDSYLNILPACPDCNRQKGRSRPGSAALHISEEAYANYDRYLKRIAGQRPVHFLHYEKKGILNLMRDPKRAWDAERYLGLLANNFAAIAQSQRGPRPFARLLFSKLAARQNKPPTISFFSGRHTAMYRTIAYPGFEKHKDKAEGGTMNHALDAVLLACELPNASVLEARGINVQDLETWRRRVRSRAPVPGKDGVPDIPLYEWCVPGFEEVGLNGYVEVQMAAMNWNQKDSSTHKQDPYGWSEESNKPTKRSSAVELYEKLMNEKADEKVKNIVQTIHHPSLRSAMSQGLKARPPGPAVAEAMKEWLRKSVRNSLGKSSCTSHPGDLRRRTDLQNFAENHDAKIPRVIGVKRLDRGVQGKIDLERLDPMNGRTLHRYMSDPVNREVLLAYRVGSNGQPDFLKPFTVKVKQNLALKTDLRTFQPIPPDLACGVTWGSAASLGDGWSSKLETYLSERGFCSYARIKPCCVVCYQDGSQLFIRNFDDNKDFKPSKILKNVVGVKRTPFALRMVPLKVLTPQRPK
Description: HEK293T cells were transfected with plasmids expressing the Nuclease H polypeptides and the gRNAs provided herein following the methods provided in Example 1 above. Gene editing efficiencies were determined by NGS following the methods also provided in Example 1. The NGS results were analyzed also following the methods provided in Example 1 above.
Each Nuclease H variant and RNA guide (see Table 16) was cloned as described in Example 9. HEK293T cells were further transfected, followed by NGS analysis, as described in Example 10. For each target, indel ratios, referring to the percentage of NGS reads comprising indels, were calculated for the reference Nuclease H (SEQ ID NO: 64) and for each Nuclease H variant. The indel ratios shown in Table 18 were calculated as the average of two bioreplicates, each of which contained two technical replicates.

[2] = biological target: T2, Nuclease H (synthetic construct); assay: cell_activity; HEK293T; PAM AAC 3'; Table 16 SEQ IDs shifted, guide taken from Table 15; conditions: tags: N-term SV40 NLS, XTEN linker + C-term nucleoplasmin NLS
T2 chain: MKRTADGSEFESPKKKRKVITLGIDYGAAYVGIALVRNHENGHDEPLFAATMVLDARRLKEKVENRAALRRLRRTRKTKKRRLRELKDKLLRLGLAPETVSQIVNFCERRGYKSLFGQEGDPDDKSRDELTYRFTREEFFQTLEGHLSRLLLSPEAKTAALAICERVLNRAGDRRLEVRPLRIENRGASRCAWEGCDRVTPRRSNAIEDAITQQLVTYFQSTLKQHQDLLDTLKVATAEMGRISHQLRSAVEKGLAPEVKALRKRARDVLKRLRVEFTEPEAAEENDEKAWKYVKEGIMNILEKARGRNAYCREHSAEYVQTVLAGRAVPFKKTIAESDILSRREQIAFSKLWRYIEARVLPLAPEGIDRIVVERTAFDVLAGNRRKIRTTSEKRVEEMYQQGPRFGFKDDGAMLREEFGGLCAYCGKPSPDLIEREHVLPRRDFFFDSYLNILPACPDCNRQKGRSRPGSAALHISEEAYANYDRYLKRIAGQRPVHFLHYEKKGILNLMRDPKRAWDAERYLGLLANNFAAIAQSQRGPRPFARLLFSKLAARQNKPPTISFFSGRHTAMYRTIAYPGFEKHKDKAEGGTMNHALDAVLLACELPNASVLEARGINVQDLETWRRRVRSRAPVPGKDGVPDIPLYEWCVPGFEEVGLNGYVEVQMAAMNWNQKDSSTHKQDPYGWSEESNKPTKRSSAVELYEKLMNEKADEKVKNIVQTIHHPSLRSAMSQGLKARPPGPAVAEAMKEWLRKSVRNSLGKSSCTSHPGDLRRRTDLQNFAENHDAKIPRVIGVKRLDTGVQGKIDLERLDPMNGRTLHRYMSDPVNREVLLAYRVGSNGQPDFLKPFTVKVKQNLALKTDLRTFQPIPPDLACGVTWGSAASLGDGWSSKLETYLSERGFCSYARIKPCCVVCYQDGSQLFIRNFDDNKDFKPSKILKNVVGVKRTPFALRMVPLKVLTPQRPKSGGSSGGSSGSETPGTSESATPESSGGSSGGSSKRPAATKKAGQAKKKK

B1: H AAVS1-T5 RNA guide ; AAVS1-T5 target (H) (ssRNA ; dsDNA)
RNA: GGCUAUAAUCCAUGCUGACCGUUUCAAUCAACCUGAUCUCUCUGCUUGCGCUGCAGGCUUCAUAAGAUCAGUAGGUUGAAAAGAGCAUCCGUCCGACAUGCACUCCGGGAUGGGGCAGUCCCGGCUCUUGCGGUUCCCGAUGCAGUUAUGUGUCCGCGGAACACGGUGUCGGACACGUCGCAAGACAGGAUGUGAGCCCAUUAUCCACAUUAGGAUCAAUGUACGCAUGAGCAGUCCGCAAUGCCGGGGACGCU
DNA 1: GGCTATAATCCATGCTGACC
DNA 2: GGTCAGCATGGATTATAGCC
activity [1]: 0.4 indel ratio
activity [2]: 0.0105 indel ratio
